Assay results from patent US6699656B2, “Treatment and prevention of HIV infection by administration of derivatives of human chorionic gonadotropin” (University of Maryland Biotechnology Institute, priority 1996, dated 2004).

B1: partially purified native β-hCG (NβhCG): partially purified native β-hCG dissociated from hCG, Sigma (protein, UniProt P0DN86 21-165, looked up)
Choriogonadotropin subunit …: SKEPLRPRCRPINATLAVEKEGCPVCITVNTTICAGYCPTMTRVLQGVLPALPQVVCNYRDVRFESIRLPGCPRGVNPVVSYAVALSCQCALCRRSTTDCGGPKDHPLTCDDPRFQDSSSSKAPPPSLPSPSRLPGPSDTPILPQ
B2: β-hCG: β-subunit of hCG as reported in the literature (protein, UniProt P0DN86 21-165, looked up)
Choriogonadotropin subunit …: B1 Choriogonadotropin subunit …
B3: recombinant β-hCG: purified recombinant β-chain of hCG (protein, UniProt P0DN86 21-165, looked up)
Choriogonadotropin subunit …: B1 Choriogonadotropin subunit …

Legend:
[1] = tested on: HIV-1; settings: p24 antigen days 3 to 10; peptides 0.05 to 50 nmoles/ml, hCG 0.01 to 1,000 IU, native β-hCG 100 to 1,000 μg
Procedure: Sequences of the peptides are as follows:
HIV-1 infected cells were treated with the above preparations and the virus was measured.

[2] = tested on: hematopoietic progenitor cells; test: Hematopoietic progenitor colony assays (CFU-MIX, BFU-e, CFU-GM); format: cell-based; settings: bone marrow and cord blood; hCG 200 IU/ml, peptides and subunits 100 μg/ml; 10 days
Description: Hematopoietic progenitor cells (2×10^5 cell/ml) were isolated from normal bone marrow and cord blood and seeded in methylcellulose. […] Aggregates containing more than 50 cells after 10 days of culture were counted as colonies.

[3] = tested on: Kaposi's Sarcoma; settings: literature; cited from earlier work
[4] = tested on: HIV-1; settings: higher doses increased viral production; cited from earlier work
[5] = tested on: KS Y-1 or KS-SLK cells; test: KS clonogenic assay; format: cell-based, human; settings: 2 KS cell lines; peptides 50 nmoles/ml, CR127 2 nmoles/ml; 10 days
Procedure: Briefly, the KS Y-1 cells were obtained from mononuclear cells isolated from pleural effusion of an AIDS patient with KS involving the lungs. After the depletion of T lymphocytes, monocytes/macrophages and fibroblasts by the cytotoxicity method, using monoclonal antibodies against CD2, CD3, CD4, CD8, CD10 and CD14 membrane antigens and baby rabbit complement, the cells were cultured in the absence of exogenous growth factors to select for transformed cells.

Molecule	inhibition of HIV-1 infection/replication in acutely infected cells [1]	growth of hematopoietic progenitors (colonies) [2]	efficacy in the treatment of Kaposi's Sarcoma [3]	doses reducing HIV production in monocytes [4] [µg/mL]	anti-KS effect in clonogenic assays (number of colonies) [5]
B1	active	directly promoted	–	–	–
B2	–	–	efficacious	≤ 10	–
B3	not to be active	–	–	–	no anti-KS effect
